# B1: DERATma (Thermotoga maritima MSB8) (protein)
# chain: MIEYRIEEAVAKYREFYEFKPVRESAGIEDVKSAIEHTNLKPFATPDDIKKLCLEARENRFHGVCVNPCYVKLAREELEGTDVKVVTVVGFPLGANETRTKAHEAIFAVESGADEIDMVINVGMLKAKEWEYVYEDIRSVVESVKGKVVKVIIETCYLDTEEKIAACVISKLAGAHFVKTSTGFGTGGATAEDVHLMKWIVGDEMGVKASGGIRTFEDAVKMIMYGADRIGTSSGVKIVQGGEERYGG
# Assays:
# [1] = substrate: C=O; assay: aldol condensation, 3-HPA quantified by HPLC after O-benzylhydroxylamine derivatisation, Michaelis-Menten fit; assay type: biochemical, Thermotoga maritima; settings: co-substrate acetaldehyde, 20 mM Kpi pH 7.0, 40 °C
# [2] = substrate: CC=O; assay: as above; assay type: biochemical, Thermotoga maritima; settings: co-substrate formaldehyde, 20 mM Kpi pH 7.0, 40 °C
protein,measurement,setting,value
B1,Km,[1],2.41 mM
same,kcat,[1],0.00817 s⁻¹
same,Km,[2],6.95 mM
same,kcat,[2],0.0085 s⁻¹

# Source: article PMC8999356, “In Vitro One-Pot 3-Hydroxypropanal Production from Cheap C1 and C2 Compounds” (International Journal of Molecular Sciences, 2022)
